Experimental data: patent US20240218057A1 (ROCKEFELLER UNIVERSITY, published 2024)

Each binder was assayed against T1, SARS-COV-2 RBD (SARS-COV-2, UniProt P0DTC2 319-539) (assay: ELISA, RBD coated on plate).
T1 construct: also called WT RBD

Binder | EC50
C1052 (antibody, V domains shown) VH: QVQLVQSGAEVKKPGASVKVSCKVSGYTLSELSMHWVRQAPGEGLEWLGGFDPEDGETINAQKFQGRVTMTEDRSTDTAYMELSSLRSEDTAVYYCATRGRYCSSGNCYYHHWGQGTLVTVSS VL: DIQMTQSPSTLSASVGDRVIITCRASQNIHNWLAWYQQKPGKAPKLLIYKASSLESGVPSRFSGSGSGTEFTLTISSLQPDDFATYFCQQYHSYSWTFGQGTKVEIK | 2.64 ng/mL
C1043 (antibody, V domains shown) VH: EVQLVESGGGLVQPGRSLRLSCAASGFIFDNYAMHWVRQAPGKGLEWVSGISWNSDSIGYADSVKGRFTISRDNAKNSLYLQMSSLRAEDTALYYCAKDLLGNYYYYTLDVWGQGTTVTVSS VL: QSALTQPASVSGSPGQSITISCTGTSSDIGGNNYVSWYQQHPGKAPRLMIFDVSYRPSGVSNRFSGSKSGNTASLTISGLQAEDEADYYCISYTTSSTLGVFGGGTKLTVL | 2.77 ng/mL
C1035 (antibody, V domains shown) VH: EVQLVESGGGLIQPGGSLRLSCAASGLTVSRNYMNWVRQAPGKGLEWVSVMYSGGSTFYADSVKGRFTISRDNSKNTLYLQMNSLRAEDTAVYYCARESYGMDVWGQGTTVTVSS VL: EIVLTQSPGTLSLSPGERATLSCRASQSFSSTYLAWYQQKPGQAPRLLIYGASSRATGIPDRFSGSGSGTDFTLTISRLEPEDFAVYYCQQYVTSPWTFGQGTKVEIK | 2.05 ng/mL
C1036 (antibody, V domains shown) VH: EVQLVESGGGLIQPGGSLRLSCAASGLIVSRNYMNWVRQVPGKGLEWVSVMYAGGSTFYADSVKGRFTISRDDSKNTLYLQMNSLRPEDTAVYYCARESYGMDVWGQGTTVTVSS VL: EIVLTQSPGTLSLSPGERATLSCRASQSISSTYLAWYQQKPGQAPRLLIYGASSRATGIPDRFSGSGSGTDFTLTISRLEPEDFAVYYCQQYVTSPWTFGQGTKVEIK | 1.02 ng/mL
C1049 (antibody, V domains shown) VH: EVQLVQSGAEVKKPGESLKISCKSSGYSFISHWIGWVRQMPGKGLEWMGIIWPGDSDTRYSPSFQGQVTISVDKSITTVYLQWSSLKAADTAMYYCARRGSSWEVDYWGQGTLVTVSS VL: not shown | 2.81 ng/mL
C1050 (antibody, V domains shown) VH: EVQLVESGGGLVQPGRSLRLSCAASGFTFDDYGMHWVRQAPGKGLEWVSGISWNGDSIGYADSVKGRFTISRDNAKTSLYLQMNRLRAEDTALYYCAKAASRSTRIGGAFDIWGQGTMVTVSS VL: QSALTQPASVSGSPGQSITISCTGTSSDVGGYNLVSWYQQHPGKAPKLMIYEGSKRPSGVSNRFSGSKSGNTASLTISGLQAEDEADYYCCSYAYSFTNVFGTGTKVTV | 2.78 ng/mL
C1051 (antibody, V domains shown) VH: EVQLVESGGGLVQPGRSLRLSCVASGFTFDDYGLHWVRQAPGKGLEWVSGISWNSDSIGYADSVKGRFAISRDNARTSLYLQMNRLRAEDTALYYCAKAASRSTRIGGAFDIWGQGTMVTVSS VL: QSALTQPASVSGSPGQSITISCTGTSSDVGGYNLVSWYQQYPGKAPKLMIYEDSKRPSGVSHRFSGSKSGNTASLTISGLQAEDEADYYCCSYAFSFTNVFGTGTKVTV | 1.4 ng/mL
C1044 (antibody, V domains shown) VH: QVQLQESGPGLVKPSQTLSLTCTVSGGSISSGNYYLTWIRQPAGKGLEWIGHIYTSGSTNYNPSLKSRVTISVDTSMNQFSLKLSSVTAADTAVYYCARDIPPTWYFDLWGRGTLVTVSS VL: SYELTQPPSVSVAPGKTARITCGGNNIGSKNVHWYQQKPGQAPVLVVYDDSDRPSGIPERFSGSNSGNTATLTISRVEAGDEAGYYCQVWDSTSDHLFWVFGGGTKLTVL | 3.22 ng/mL
C1045 (antibody, V domains shown) VH: QVQLQESGPGLVKPSQTLSLTCTVSGDSISSGNYYWSWIRQPAGKGLEWIGHIYTSGSPNYKPSLKSRVTISLDTSKNQFSLKLTSVTAADTAMYYCARDIPSTWYFDLWGRGTLVTVSS VL: SYELTQPPSVSVAPGKTARIPCGGTDIGSKNVHWYQQKPGQAPVLAVYDDSDRPSGIPERFSGSNSGSTATLTISRVEAGDEADYYCQVWDSSGDRLSWVFGGGTKLTVL | 2.57 ng/mL
C1038 (antibody, V domains shown) VH: QVQLVQSGAEVKKPGASVKVSCKASGYTFTSYYMHWVRQAPGQGLEWMGIINPSGGSTRYAQKFQGRVTMTRDTSTSTVYMELSSLRSEDTAVYYCAREGVGGTSYFDYWGQGTLVTVSS VL: SYELTQPPSVSVAPGKTARITCGGNNIGSKSVHWYQQKPGQAPVLVVYDDSDRPSGIPERFSGSNSGNTATLTISRVEAGDEADYYCQVWDSSSDPYVFGTGTKVTVL | 2.46 ng/mL
C1039 (antibody, V domains shown) VH: QVQLVQSGAEVKKPGASVKVSCKASGYTFTSHYMHWVRQAPGQGLEWMGIINPRTRYAQMFQGRVSMNRDTSTSTVYMELSSLTSEDTAVYYCAREGLGATAYFDYWGQGTLVTVSS VL: SYELTQPPSVSVAPGKTAGITCGGSDIGSKSVHWYQQKPGQAPVLVVYDDSDRPSGIPERFSGSNSGNTATLTISRVEAGDEADYYCQVWDSSSDPYVFGTGTKVSVL | 2.61 ng/mL
C1048 (antibody, V domains shown) VH: EVQLVQSGAEVKKPGESLKISCKVSGYSFISHWIGWVRQMPGKGLEWMGIIYPGDSDTRYSPSFQGQVTISADKSISTAYLQWSSLKASDTAMYYCARRGASWELDYWGQGTLVTV VL: QSVLTQPPSASGTPGQRVTISCSGSSSNIGSNPVSWYQQLPGPAPQLLIYGNDQRPSGVPDRFSGSKSGTSASLAISGLQSEDEADYYCAAWDDSLNGYVFGTGTKVTVL | 2.41 ng/mL
C1053 (antibody, V domains shown) VH: EVQLLESGGGLVQPGGSLRLSCAASGFTFSSYAMNWVRQAPGKGLEWVSAISGSGGGTYYADSVKGRFTISRDNSKNTLYLQMDSLRAEDTAVYYCAKDVPIEQQLVPTFDYWGQGALVTVSS VL: DIQMTQSPSSLSASVGDRVTITCRASQSISRYLNWYQQKPGKAPKLLIYGASSLQSGVPSRFSGSGSGTDFTLTISSLQPEDFATYWCQQSYSTLSITFGQGTRLEIK | 4.13 ng/mL
C1054 (antibody, V domains shown) VH: EVQLLESGGGLVQPGGSLRLSCVVSGFTFSSYAMNWVRQAPGKGLEWVSVIGGSGDGRYYADSVKGRFTISRDNSKNTLYLQMNSLRGDDTAVYYCARDVPVEQQLVPTFDYWGQGTLVTVSS VL: DIQMTQSPSSLSASVGDRVTITCRASQSISRYLNWYQQKPGKAPKLLIYAASSLQSGVPSRFSGSGSGTEFTLTISSLQPEDFATYYCQQSYSTLSITFGQGTRLEIK | 1.64 ng/mL
C1061 (antibody, V domains shown) VH: EVQLVESGGGLVQPGGSLRLSCAASGFTFSRYDMHWVRQGTGKGLEWVSAIGTSGDTYYPDSVKGRFTISRENAKNSLYLQMNSLRAGDTAVYYCARGGLQTTTWLFDYWGQGTLVTVSS VL: DIQMTQSPSSLSASVGDRVTITCRASQSISRYLNWYQQKPGKAPKLLIYAASSLQSGVPSRFSGSGAGTDFTLTISSLQPEDFAIYYCQQSYSNPPITFGQGTRLEIK | 2.26 ng/mL
C1058 (antibody, V domains shown) VH: EVQLVESGGGLVQPGGSLRLSCAASGIIVSSNYMNWVRQVPGKGLEWVSVLYSGGSTFYADSVRGRFTISRDNSKNTLFLQMNSLRPEDTAVYYCARDFREGAFDIWGQGTMVTV VL: DIQLTQSPSFLSASVGDRVTITCRASQGISSYLAWYQQKPGKAPNLLIYAASTLQSGVPSRFSGSGSGTDFTLTISSLQPEDFATYYCQQLNSYSPLFGQGTRLEIK | 2.13 ng/mL
C1059 (antibody, V domains shown) VH: EVQLVESGGGLVQPGGSLRLSCAASGVTVSYNYMHWVRQAPGKGLEWVSVFFPGGSIFYADSVKGRFSISRDNSHNTLYLQMNNLRPEDTAVYYCARDFREGAIDLWGQGTMVTVSS VL: DIQLTQSPSFLSASVEDRVTITCRASQGISSYLAWYQQKPGKAPKLLIYGASTLQSGVPSRFSGSGSGTEFTLTISSLQPEDSATYYCQQLNSYPPLFGQGTRLEIK | 1.69 ng/mL
C1046 (antibody, V domains shown) VH: EVQLVQSGAEVKKPGESLKISCKGSGYSFTSYWIGWVRQMPGKGLEWMGIIYPGDSDTRYSPSFQGQVTISADKSISTAYLQWSSLKASDTAMYYCARMVTSGTYYYDNSGYSSSGPFDYWGQGTLVTVSS VL: DIQLTQSPSSLSASVGDRVTITCRASQGISSALAWYQQKPGKAPKLLIYDASSLESGVPSRFSGSGSGTDFTLTISSLQPEDFATYYCQQFNNFGPGTKVDIK | 3.8 ng/mL
C1057 (antibody, V domains shown) VH: QVQLVQSGAEVKKPGSSVKVSCKASGGTFTTYIISWVRQAPGQGLEWMGGISPMLGTANYAQKFQGGVTITADESTTTAYMEMSGLRSEDTAVYYCARAHMYCSDGSCYRQSGYFDSWGQGTLVTVSS VL: QSALTQPRSVSGSPGQSVTITCTGTSSNVGGYKYVSWFQQHPGKAPKFLIYDVSERSSGVPDRFSGSKSGNTASLTISGLQAEDEADYYCCSYAGKYTVVFGGGTRLTV | 2.12 ng/mL
C1040 (antibody, V domains shown) VH: QVQLVESGGGVVQPGRSLRLSCAASGFSFINYNMHWVRQAPGKGLEWVAVIWYDGSNKYYADSVKGRFTISRDNSKNTLYLQMNSLRVEDTAVYYCARDPAITEAEIDYWGQGTLVTVSS VL: DVVMTQSPLSLPVTLGQAASISCRSSQSLVHSDGNTYLNWFQQRPGQSPRRLIYRVSNRDSGVPDRFSASGSGTDFTLKISRVEAEDVGVYYCMQGTHWPWTFGQGTKVEIK | 2.08 ng/mL
C1055 (antibody, V domains shown) VH: QVQLVESGGGVVQPGRSLRLSCAASGFTFSTYGMNWVRQAPGKGLEWVALILYDGSDKYYADSVKSRFTISRDNSRNTLYLQMTSLRAEDTAVYYCAKALSSTYYYDASGPDAFDIWGQGTMVTVSS VL: not shown | 2.71 ng/mL
C1047 (antibody, V domains shown) VH: EVQLVQSGAEVKKPGESLKISCKGSGYSFISYWIVWVRQMPGKGLEWIGIIYPGDSDTIYSPSFQGQVTLSADKSISTAYLQWSSLKASDTAIYYCAKMVTSGTSYYETRGYASSGPFDNWGQGTLVTVSS VL: DIQLTQSPSSLSASVGDRVTITCRASQGISSALAWYQQKPGKAPKLLIYDASSLESGVPSRFSGSGSGTDFTLTISSLQPEDFATYYCQQSDNFGPGTKVDI | 2.46 ng/mL
C1060 (antibody, V domains shown) VH: EVQLVESGGDLVQPGGSLRLSCAASEIIVSRNYMNWVRQAPGKGLEWVSIIYSGGSTFYGDSVKGRFTISRDSSKNTLYLQMHGLRVEDTAIYYCARSYGDYYIDYWGQGTLVTVSS VL: DIQMTQSPSSVSASVGDRVTITCRTSQSISTSLAWYQQKPGKAPKLLIYAASSLQRGVPSRFSGTGSGTDFTLTISSLQPEDFATYYCQQSSSSPPLFTFGPGTKVDIK | 2.67 ng/mL
